The results in this text go back to the supplement of paper PMC10567573.

B1: TRIM35 (parent)
chain: DKELLCCSCQADPRHQGHRVQPVK
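Also: lentivirally expressed fusions sorted by FACS into six bins by GFP to DsRed ratio, PSI derived from sequencing read proportions per bin multiplied by bin number.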

The variants in the data set derive from B1. The data set is described as follows: protein stability index of a GFP-peptide fusion (GPS, HEK-293T) (PSI 1-6); higher = more stable. The conditions noted are these: c terminus: a fixed tail appended.
For DKELLCCSCQADPRHQGHRVQPKK [V23K], the protein stability index worked out at 4.55.
As to DKELLCCSCQADPRHQGHRVQPLK [V23L], the protein stability index was found to be 4.02.
Then DKELLCCSCQADPRHQGHRVQPIK [V23I], with 4.25.
With DKELLCCSCQADPRHQGHRVQPNK [V23N] the figure was 3.8.
Take DKELLCCSCQADPRHQGHRVQPQK [V23Q]: the protein stability index is 4.13.
Take DKELLCCSCQADPRHQGHRVQPGK [V23G]: the protein stability index amounted to 3.87.
Then DKELLCCSCQADPRHQGHRVQPAK [V23A], with 3.88.
With DKELLCCSCQADPRHQGHRVQPYK [V23Y] the figure was 2.96; with DKELLCCSCQADPRHQGHRVQPHK [V23H], 3.23.
With DKELLCCSCQADPRHQFHRVQPVK [G17F] the figure was 3.49; with DKELLCCSCQADPRHQEHRVQPVK [G17E], 4.17; with DKELLCCSCQADPRHQRHRVQPVK [G17R], 3.84.
On to DKELLCCSCQADPRHQKHRVQPVK [G17K], for which the protein stability index was 3.99.
On to DKELLCCSCQADPRHQHHRVQPVK [G17H], for which the protein stability index stood at 3.95.
With DKELLCCSCQADPRHQDHRVQPVK [G17D] the figure was 3.88; with DKELLCCSCQADPYHQGHRVQPVK [R14Y], 3.35; with DKELLCCSCQADPMHQGHRVQPVK [R14M], 3.97.
With DKELLCCSCQADPTHQGHRVQPVK [R14T] the figure was 3.52; with DKELLCCSCQADPWHQGHRVQPVK [R14W], 2.46.
Then DKELLCCSCQADPEHQGHRVQPVK [R14E], with 3.85; and DKELLCCSCQADPHHQGHRVQPVK [R14H], with 3.69; and DKELLCCSCQADPKHQGHRVQPVK [R14K], with 3.37.
As for DKELLCCSCQADPFHQGHRVQPVK [R14F], the protein stability index was determined as 3.35.
With DKELLCCSCQADPCHQGHRVQPVK [R14C] the figure was 4.24.
With DKELLCCSCQADPDHQGHRVQPVK [R14D] the figure was 4.05; with DKELLCCSCQADPSHQGHRVQPVK [R14S], 3.58; with DKELLCCSCQADPIHQGHRVQPVK [R14I], 4.18.
Then DKELLCCSCQADPQHQGHRVQPVK [R14Q], with 3.75; and DKELMCCSCQADPRHQGHRVQPVK [L5M], with 3.11.
In the case of DKELACCSCQADPRHQGHRVQPVK [L5A], the protein stability index was determined as 3.65.
With DKELYCCSCQADPRHQGHRVQPVK [L5Y], the protein stability index came out at 2.93.
Take DKELSCCSCQADPRHQGHRVQPVK [L5S]: the protein stability index was 4.44.
For DKELKCCSCQADPRHQGHRVQPVK [L5K], the protein stability index came out at 3.58.
With DKELHCCSCQADPRHQGHRVQPVK [L5H] the figure was 3.91.
Then DKELDCCSCQADPRHQGHRVQPVK [L5D], with 4.43.
With DKELWCCSCQADPRHQGHRVQPVK [L5W], the protein stability index was determined as 3.18.
With DKELPCCSCQADPRHQGHRVQPVK [L5P] the figure was 4.36; with DKELLCCSCQADPRHQGHTVQPVK [R19T], 3.01; with DKELLCCSCQADPRHQGHKVQPVK [R19K], 3.56.
Then DKELLCCSCQADPRHQGHNVQPVK [R19N], with 3.73.
With DKELLCCSCQADPRHQGHWVQPVK [R19W] the figure was 2.78; with DKELLCCSCQADPRHHGHRVQPVK [Q16H], 3.58.
On to DKELLCCSCQADPRHRGHRVQPVK [Q16R], for which the protein stability index worked out at 3.34.
With DKELLCCSCQADPRHEGHRVQPVK [Q16E] the figure was 3.87; with DKELLCCSCQADPRHNGHRVQPVK [Q16N], 3.33; with DKELLCCSCQADPRHWGHRVQPVK [Q16W], 2.67.
With DKELLCYSCQADPRHQGHRVQPVK [C7Y] the figure was 3.83; with DKELLCLSCQADPRHQGHRVQPVK [C7L], 3.66; with DKELLCISCQADPRHQGHRVQPVK [C7I], 3.29.
Then DKELLCWSCQADPRHQGHRVQPVK [C7W], with 3.9; and DKELLCMSCQADPRHQGHRVQPVK [C7M], with 3.62.
Regarding DKELLCCSCQADVRHQGHRVQPVK [P13V], the protein stability index amounted to 2.8.
With DKELLCCSCQADMRHQGHRVQPVK [P13M] the figure was 2.71; with DKELLCCSCQADSRHQGHRVQPVK [P13S], 1.97.
Then DKELLCCSCQADWRHQGHRVQPVK [P13W], with 2.31; and DKELLCCSCQADTRHQGHRVQPVK [P13T], with 3.34.
Then DKELLCCSCQADQRHQGHRVQPVK [P13Q], with 3.88; and DRELLCCSCQADPRHQGHRVQPVK [K2R], with 3.12; and DFELLCCSCQADPRHQGHRVQPVK [K2F], with 2.63.
For the variant DVELLCCSCQADPRHQGHRVQPVK [K2V], the protein stability index stood at 3.53.
Then DGELLCCSCQADPRHQGHRVQPVK [K2G], with 3.05.
For the variant DQELLCCSCQADPRHQGHRVQPVK [K2Q], the protein stability index came to 3.78.
With DYELLCCSCQADPRHQGHRVQPVK [K2Y] the figure was 3.2; with DTELLCCSCQADPRHQGHRVQPVK [K2T], 3.79.
For DAELLCCSCQADPRHQGHRVQPVK [K2A], the protein stability index is 3.54.
With DKELLCCACQADPRHQGHRVQPVK [S8A] the figure was 3.31; with DKELLCCVCQADPRHQGHRVQPVK [S8V], 3.75; with DKELLCCPCQADPRHQGHRVQPVK [S8P], 3.59.
Then DKELLCCNCQADPRHQGHRVQPVK [S8N], with 3.62.
Then DKELLCCSCQANPRHQGHRVQPVK [D12N], with 3.12; and DKELLCCSCQAYPRHQGHRVQPVK [D12Y], with 2.75.
On to DKELLCCSCQAMPRHQGHRVQPVK [D12M], for which the protein stability index amounted to 2.72.
Then DKELLCCSCQAIPRHQGHRVQPVK [D12I], with 2.45; and DKELLCCSCQAVPRHQGHRVQPVK [D12V], with 3.21.
With DKELLCCSCQAAPRHQGHRVQPVK [D12A] the figure was 3.52.
As for DKELLCCSCQAQPRHQGHRVQPVK [D12Q], the protein stability index is 3.4.
On to DKELLCCSCQAEPRHQGHRVQPVK [D12E], for which the protein stability index was determined as 3.78.
For the variant DKELLCCSCQAWPRHQGHRVQPVK [D12W], the protein stability index came to 3.48.
With DKELLCCSCQAGPRHQGHRVQPVK [D12G] the figure was 3.13.
With DKELLCCSCQASPRHQGHRVQPVK [D12S] the figure was 3.06; with DKELLCCSCQADPRHQGHRVQPVR [K24R], 2.82.
Turning to DKELLCCSCQADPRHQGHRVQPVI [K24I], the protein stability index was determined as 2.73.
With DKELLCCSCQADPRHQGHRVQPVS [K24S] the figure was 3.52.
With DKELLCCSCQADPRHQGHRVQPVH [K24H] the figure was 3.38.
With DKELLCCSCQADPRHQGHRVQPVL [K24L] the figure was 2.65.
With DKELLCCSCQADPRHQGHRVQPVP [K24P], the protein stability index turned out to be 3.46.
On to DKELLCCSCQADPRHQGHRVQPVG [K24G], for which the protein stability index was 3.63.
Then DKELLCCSCQADPRHQGHRVQPVE [K24E], with 3.81; and DKELLCCSCQADPRDQGHRVQPVK [H15D], with 4.23.
With DKELLCCSCQADPRFQGHRVQPVK [H15F] the figure was 3.62.
For the variant DKELLCCSCQADPRYQGHRVQPVK [H15Y], the protein stability index amounted to 3.
Turning to DKELLCCSCQADPRIQGHRVQPVK [H15I], the protein stability index is 2.99.
On to DKELLCCSCQADPRAQGHRVQPVK [H15A], for which the protein stability index was found to be 3.48.
With DKELLCCSCQADPRTQGHRVQPVK [H15T] the figure was 3.57.
